Results reported in paper PMC5954021.

Experiment: western blot, TGF-β-treated MCF-10A
Conditions: glycan lost, control: control sgRNA cells
For PD-L1: STT3B knockdown, the expression_or_secretion was “no change”. With PD-L1: STT3A/3B knockdown the expression_or_secretion was “decreases”. For PD-L1: STT3A knockdown, the expression_or_secretion was “no change”.
